Data published in patent US6706762, “Methods for the use of inhibitors of co-repressors for the treatment of neoplastic diseases” (The Salk Institute for Biological Studies).

How the values were obtained:
[1] = biological target: RARα/RXRα heterodimer (UniProt P10276;P19793 P10276:1-462,P19793:1-462); assay: EMSA; with GST-SMRT-IDII; SMRT dissociated by ATRA; 100 mM KCl, 16.7 mM Tris pH 7.5, poly(dI:dC), room temperature; conditions: label: 32P
Text: The protein-DNA complexes were then resolved on a 4.5% native polyacrylamide gel and visualized by autoradiography.

[2] = biological target: RARα 411/RXRα heterodimer (Homo sapiens, UniProt P10276;P19793 P10276:1-410,P19793:1-462, RARα stop codon introduced at amino acid 411); assay: EMSA; with GST-SMRT-IDII; impaired dissociation of SMRT by ATRA; conditions: label: 32P
Chain of RARα 411/RXRα heterodimer (P10276 1-410, change not shown, chain 1 of 2): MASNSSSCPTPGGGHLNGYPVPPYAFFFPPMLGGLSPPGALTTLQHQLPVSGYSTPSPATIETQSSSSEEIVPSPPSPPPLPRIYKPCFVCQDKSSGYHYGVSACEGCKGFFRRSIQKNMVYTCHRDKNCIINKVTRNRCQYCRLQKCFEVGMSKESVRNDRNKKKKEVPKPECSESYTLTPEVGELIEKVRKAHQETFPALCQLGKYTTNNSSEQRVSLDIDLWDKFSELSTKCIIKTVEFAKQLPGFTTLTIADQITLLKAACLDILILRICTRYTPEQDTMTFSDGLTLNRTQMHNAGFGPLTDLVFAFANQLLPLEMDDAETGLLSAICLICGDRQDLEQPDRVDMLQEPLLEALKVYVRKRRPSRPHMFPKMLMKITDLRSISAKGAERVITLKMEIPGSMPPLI
Chain of RARα 411/RXRα heterodimer (P19793 whole entry, change not shown, chain 2 of 2): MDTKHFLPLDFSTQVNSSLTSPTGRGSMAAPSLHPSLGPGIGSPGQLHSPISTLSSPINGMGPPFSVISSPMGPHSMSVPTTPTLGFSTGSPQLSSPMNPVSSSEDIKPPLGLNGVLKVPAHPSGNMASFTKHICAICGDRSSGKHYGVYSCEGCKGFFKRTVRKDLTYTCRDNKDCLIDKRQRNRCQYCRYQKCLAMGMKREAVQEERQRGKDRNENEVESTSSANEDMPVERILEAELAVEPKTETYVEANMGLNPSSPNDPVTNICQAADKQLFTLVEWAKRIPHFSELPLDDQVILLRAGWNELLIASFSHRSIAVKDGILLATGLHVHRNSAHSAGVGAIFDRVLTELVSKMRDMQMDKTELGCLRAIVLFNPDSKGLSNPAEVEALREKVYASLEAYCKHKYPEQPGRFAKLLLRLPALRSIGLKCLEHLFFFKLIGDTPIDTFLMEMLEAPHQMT

Chain of RARα/RXRα heterodimer (P10276 whole entry, chain 1 of 2): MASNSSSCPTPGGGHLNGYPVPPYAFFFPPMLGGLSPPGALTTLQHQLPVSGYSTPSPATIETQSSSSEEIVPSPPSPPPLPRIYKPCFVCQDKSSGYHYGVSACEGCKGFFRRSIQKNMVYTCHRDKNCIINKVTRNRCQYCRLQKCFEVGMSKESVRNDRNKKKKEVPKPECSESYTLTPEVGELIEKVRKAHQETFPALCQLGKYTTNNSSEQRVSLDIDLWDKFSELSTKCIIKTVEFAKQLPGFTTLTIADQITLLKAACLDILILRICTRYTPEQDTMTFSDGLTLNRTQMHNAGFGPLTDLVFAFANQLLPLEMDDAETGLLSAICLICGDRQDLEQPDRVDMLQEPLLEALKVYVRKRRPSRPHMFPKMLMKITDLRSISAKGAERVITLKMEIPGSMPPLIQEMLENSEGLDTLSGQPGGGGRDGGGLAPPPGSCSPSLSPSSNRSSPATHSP
Chain of RARα/RXRα heterodimer (P19793 whole entry, chain 2 of 2): as the sequence (P19793 whole entry, change not shown, chain 2 of 2) above

B1: DR5 retinoid response element (dsDNA)
DNA 1: TCGACTCAGGTCACCACGAGGTCAGAGTC
DNA 2: GACTCTGACCTCGTGGTGACCTGAGTCGA
binding result [1]: binds | binding result [2]: binds
